Assay results from patent US20260055206A1 (GENSUN BIOPHARMA, published 2026).

T1: human DLL3 (over-expressed on CHO-K1 cells) (human, UniProt Q9NYJ7 27-618)
T1 construct: whole, on cells; also called huDLL3; Delta-like 3
T1 sequence (looked up): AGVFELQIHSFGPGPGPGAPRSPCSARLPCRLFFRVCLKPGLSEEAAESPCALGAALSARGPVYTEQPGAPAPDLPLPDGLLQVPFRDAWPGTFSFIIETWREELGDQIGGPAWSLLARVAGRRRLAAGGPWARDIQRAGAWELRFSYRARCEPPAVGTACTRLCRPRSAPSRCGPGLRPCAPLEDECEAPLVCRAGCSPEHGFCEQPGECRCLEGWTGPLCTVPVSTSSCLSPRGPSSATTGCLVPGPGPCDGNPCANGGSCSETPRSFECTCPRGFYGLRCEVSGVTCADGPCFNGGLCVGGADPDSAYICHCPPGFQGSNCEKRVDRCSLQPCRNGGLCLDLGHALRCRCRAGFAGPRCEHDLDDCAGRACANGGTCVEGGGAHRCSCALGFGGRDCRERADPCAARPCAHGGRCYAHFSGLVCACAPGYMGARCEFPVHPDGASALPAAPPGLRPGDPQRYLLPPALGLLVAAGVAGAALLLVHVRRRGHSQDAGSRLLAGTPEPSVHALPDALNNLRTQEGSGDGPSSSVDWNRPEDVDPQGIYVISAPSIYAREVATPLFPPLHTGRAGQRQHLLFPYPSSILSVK

B1: DLL3.1 (humanized anti-DLL3 antibody) (antibody, V domains shown)
VH: QVQLVQSGAEVKKPGASVKVSCKASDYTFSNYYIEWVRQAPGQGLEWMGEILPGNGNTVYNEKFKDRVTMTVDTSTSTAYMELRSLRSDDTAVYYCARWGDYALFANWGQGTLVTVSS
VL: DIQMTQSPSTLSASVGDRVTITCKASQNVGTNVAWYQQKPGKAPKALIYSASYRYSGVPSRFSGSGSGTEFTLTISSLQPDDFATYYCQQYNSYPFTFGQGTKLEIK
notes: it was detected with anti-human IgG Fc
B2: DLL3.4 (humanized anti-DLL3 antibody) (antibody, V domains shown)
VH: QVQLVQSGAEVKKPGASVKVSCKATDYIFSNYYIEWVRQAPGQGLEWMGEILPGTGNTVYNEKFKDRVTMTVDTSTSTVYMELSSLRSEDTAVYYCARWGDYALFANWGQGTLVTVSS
VL: DIQMTQSPSFLSASVGDRVTITCKASQNVGTNVAWYQQKPGKAPKPLIYSTSYRYSGVPSRFSGSGSGTEFTLTISSLQPEDFATYYCQQYNNYPLTFGGGTKVEIK
notes: as for B1
B3: DLL3.3 (humanized anti-DLL3 antibody) (antibody, V domains shown)
VH: QVQLVQSGAEVKKPGASVKVSCKASGYTFTDYFMNWVRQAPGQGLEWMGVINPYNDITIYNQKFQGRVTMTVDRSTSTVYMELSSLRSEDTAVYYCAREGVLYDGYYEGAYWGQGTLVTVSS
VL: DIQLTQSPSFLSASVGDRVTITCKASQNVGIAVAWYQQKPGKAPKLLIYAASNRYTGVPSRFSGSGSGTEFTLTISSLQPEDFATYYCQQYSTYPYTFGQGTKLEIK
notes: as for B1

What follows are binders tested against T1, human DLL3 (over-expressed on CHO-K1 …) (assay: flow cytometry (iQue) on CHO-K1 cells over-expressing human DLL3, PE anti-human IgG Fc secondary).
Protocol: To evaluate the ability of anti-DLL3 antibodies to bind, human serial dilutions of the anti-DLL3 antibodies were added to CHO-K1 cells (20,000 cells/well) over-expressing human or cyno DLL3. The mixtures were incubated at 4° C. for 20 minutes, washed 3 times, and stained with the secondary antibody, PE labeled F(ab′)2-Goat anti-human IgG Fc (Thermo H10104) at 4° C. for 20 minutes. Cells were washed and resuspended in 7-Amino-Actinomycin D (7-AAD) solution and fixed in 10% neutral buffered formalin solution for 15 minutes before analysis with the iQue-Intellicyt […]™ iQUE™ system. FIG. 3A is a graph of the concentration (nM) versus the mean fluorescence intensity.

Binding result, binds:
B1
B2
B3
